Assays:
[1] = target: CaMKIIδ (Homo sapiens) (UniProt Q13557); settings: cited from earlier work
[2] = target: biotinylated SN‐db‐short [SN (7–26, L17F, V20F)] (human); assay: SPR; Biacore X100, room temperature; biotin‐ahx‐SN‐db‐short immobilised on a streptavidin chip (58 RU); His‐CaMKIIδ‐T287D 0.06–1 μM injected, single‐cycle; HEPES running buffer with 2.5 mM Ca2+; 1:1 Langmuir fit; average of three experiments

Sequence of CaMKIIδ (Homo sapiens) (Q13557 2-499, stated change not applied): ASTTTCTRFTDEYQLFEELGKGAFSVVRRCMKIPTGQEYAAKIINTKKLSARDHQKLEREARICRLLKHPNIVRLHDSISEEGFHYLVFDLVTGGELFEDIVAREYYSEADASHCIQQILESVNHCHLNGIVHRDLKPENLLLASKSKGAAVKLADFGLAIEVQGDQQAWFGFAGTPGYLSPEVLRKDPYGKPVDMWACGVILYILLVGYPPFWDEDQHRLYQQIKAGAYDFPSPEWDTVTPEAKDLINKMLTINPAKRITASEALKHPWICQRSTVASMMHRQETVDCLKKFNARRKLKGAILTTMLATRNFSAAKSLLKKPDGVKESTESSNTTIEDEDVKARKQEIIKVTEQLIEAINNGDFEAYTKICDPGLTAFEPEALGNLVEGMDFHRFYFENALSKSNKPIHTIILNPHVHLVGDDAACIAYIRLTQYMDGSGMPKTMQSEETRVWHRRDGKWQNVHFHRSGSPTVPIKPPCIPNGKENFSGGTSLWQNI
Sequence of Secretoneurin (P13521 182-214): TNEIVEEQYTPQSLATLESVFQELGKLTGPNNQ

Substance	Kd [1] [nM]	Kd [2] [nM]	koff [2] [s⁻¹]	kon [2] [M⁻¹ s⁻¹]
Secretoneurin (from UniProt P13521)	80	–	–	–
recombinant His‐CaMKIIδ‐T287D (species not named for the experiment) (from UniProt P15791 1-533) (enzyme)	–	68	0.00057	14000

Reference: publication PMC12544700, “Identification of a Small Secretoneurin Derivative That Inhibits CaMKIIδ Activity” (Journal of Cellular and Molecular Medicine, 2025)
